# Results: patent US20220412989A1, “COMPOSITIONS AND METHODS FOR DETECTING CELLS UNDERGOING FERROPTOSIS USING AN ANTIBODY” (THE TRUSTEES OF COLUMBIA UNIVERSITY IN THE CITY OF NEW YORK, priority 2020, published 2022)
# “Also recorded” adds a separate entry of the source.
# B1: 3F3-FMA: murine monoclonal IgG1 raised against ferroptotic membrane fractions; antigen is human transferrin receptor protein 1 (TfR1) (antibody, V domains shown)
# VH: EVLLQQSGTELVRPGALVKLSCKASGFNIQDLYIHWVKQRPEQGLEWIGWIDPETDNTIYDPKFQGKASITADTSSNTAYLQLSSLTSEDTAMYYCSTGLLQWYFDVWGAGTAVTVSS
# VL: DIVMTQSPSSLAMSIGQKVTMRCKSSQSLLNSYNQKNCLAWYQQKPGQSPKLLLYFVSTRESGVPDRFIGSGSGTDFTLTISSVQAEDLADYFCQQHYSTPLTFGAGTKLELK
# How the values were obtained:
# [1] = test system: HT-1080 cells; assay: Flow cytometry antibody staining without permeabilization; assay type: cell-based, human
# Experimental: HT-1080 cells were treated with DMSO or 1 μM RSL3 for 4 h. The cells were harvested by 0.25% Trypsin-EDTA (1×) (Invitrogen 25200-114) and washed with HBSS once. The cells were resuspended in 5% goat serum (ThermoFisher 50197Z) for 30 min on ice. The cells were incubated with mAb 3F3 FMA (1:500 dilution), Transferrin Receptor/CD71 Monoclonal Antibody, Clone: H68.4, Invitrogen (Thermo Fisher Scientific Cat #13-6800, RRID:AB_2533029, 1:250 dilution), CD71 (3B8 2A1) (Santa Cruz Biotechnology Cat #sc-32272, RRID:AB_627167, 1:50 dilution), Anti-Malondialdehyde antibody (Abcam Cat #ab6463, RRID:AB_305484, 1:400 dilution), Anti-4 Hydroxynonenal antibody (Abcam Cat #ab46544, RRID:AB_722493, 1:50 dilution), and mouse mAb 1F83 (1:100 dilution), which specifically recognizes the malondialdehyde (MDA)-lysine adduct 4-methyl-1,4-dihydropyridine-3,5-dicarbaldehyde (MDHDC) (Yamada et al., 2001) for 1 h on ice. The cells were washed with HBSS for 5 min three times by centrifugation. […] Fluorescence intensity was measured on the FL1 channel with gating to record live cells only (gate constructed from DMSO treatment group). A minimum of 10,000 cells were analyzed per condition. […]
# [2] = test system: HCC (Huh-7) mouse xenograft tumor tissue; assay: Staining of hepatocellular carcinoma mouse xenograft tumor tissue sections; design: species or system human; details: 50 mg/kg IKE once daily IP 2 days
# Experimental: Tumor tissues were fixed in 4% paraformaldehyde (PFA) for 24 h at 4° C. followed by washing with PBS three times. The tissues were perfused in 30% sucrose for 24 h at 4° C. for cryo-protection. The samples were embedded in OCT cryostat sectioning medium, and then moved directly into a cryostat. After equilibration of temperature, frozen tumor tissues were cut into 5 μm thick sections. Tissue sections were mounted on to poly-L-lysine coated slides by placing the cold sections onto warm slides. Slides were stored at −80° C. until staining. For staining, slides were warmed to room temperature followed by washing with PBS twice. A hydrophobic barrier pen was used to draw a circle on each slide. The slides were permeabilized with PBS with 0.4% Triton X-100 (PBT) twice before non-specific-binding blocking by incubating the sections with 10% goat serum (ThermoFisher 50197Z) for 30 min at room temperature. […] All images were captured on a Zeiss LSM 800 confocal microscope at Plan-Apochromat 63x/1.40 Oil DIC objective with constant laser intensity for all analyzed samples. The intensity above threshold of the fluorescent signal of the bound antibodies was analyzed using NIH ImageJ software (ImageJ, RRID:SCR_003070). Data were expressed as fold change comparing with the vehicle. […]
# [3] = biological target: T1, TfR1 in human brain tissue (Homo sapiens, UniProt P02786); assay: Staining of post-mortem human brain tissues; details: Huntington's disease and control
# T1 construct: human HD and control brain tissues were fixed in 4% PFA for 24 h; from tissue; host or cells: post-mortem human brain (Huntington's disease and control)
# Experimental: FIGS. 12A-12B show 3F3 FMA staining in human Huntington's disease brains and mouse tissues. In FIG. 12A, human HD and control brain tissues were fixed in 4% PFA for 24 h, perfused in 30% sucrose for 24 h, and stained with DAPI (nuclei, blue) and 3F3 FMA (red). The expression level of TfR1 is low. There was no difference between HD and control groups. In FIG. 12B, mouse liver tissues and mouse GBM tissues were fixed and stained with DAPI (nuclei, blue) and 3F3 FMA (red). 3F3 FMA was able to recognize mouse TfR1.
# Tumor tissues were fixed in 4% paraformaldehyde (PFA) for 24 h at 4° C. followed by washing with PBS three times. The tissues were perfused in 30% sucrose for 24 h at 4° C. for cryo-protection. The samples were embedded in OCT cryostat sectioning medium, and then moved directly into a cryostat. After equilibration of temperature, frozen tumor tissues were cut into 5 μm thick sections. Tissue sections were mounted on to poly-L-lysine coated slides by placing the cold sections onto warm slides. […] All images were captured on a Zeiss LSM 800 confocal microscope at Plan-Apochromat 63x/1.40 Oil DIC objective with constant laser intensity for all analyzed samples. The intensity above threshold of the fluorescent signal of the bound antibodies was analyzed using NIH ImageJ software (ImageJ, RRID:SCR_003070). Data were expressed as fold change comparing with the vehicle.
# T1 sequence (P02786 whole entry): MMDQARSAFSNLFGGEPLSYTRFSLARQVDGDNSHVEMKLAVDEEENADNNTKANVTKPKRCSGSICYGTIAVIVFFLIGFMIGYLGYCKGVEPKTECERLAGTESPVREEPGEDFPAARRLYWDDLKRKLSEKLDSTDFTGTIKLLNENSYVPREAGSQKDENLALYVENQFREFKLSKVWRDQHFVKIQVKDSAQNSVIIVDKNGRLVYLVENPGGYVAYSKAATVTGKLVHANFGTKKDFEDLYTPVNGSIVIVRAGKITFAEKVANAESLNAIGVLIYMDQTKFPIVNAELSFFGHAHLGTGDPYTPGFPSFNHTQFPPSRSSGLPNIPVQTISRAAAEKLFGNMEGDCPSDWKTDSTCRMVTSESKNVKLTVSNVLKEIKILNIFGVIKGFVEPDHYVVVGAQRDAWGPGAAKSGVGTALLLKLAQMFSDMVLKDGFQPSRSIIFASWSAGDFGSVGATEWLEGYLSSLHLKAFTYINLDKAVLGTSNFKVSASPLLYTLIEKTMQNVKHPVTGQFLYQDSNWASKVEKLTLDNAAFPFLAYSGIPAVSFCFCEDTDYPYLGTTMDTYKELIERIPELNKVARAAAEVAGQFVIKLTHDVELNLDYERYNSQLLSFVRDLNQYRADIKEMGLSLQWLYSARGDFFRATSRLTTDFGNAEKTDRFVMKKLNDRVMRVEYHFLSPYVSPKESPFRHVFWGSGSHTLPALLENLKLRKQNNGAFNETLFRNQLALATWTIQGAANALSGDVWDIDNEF
molecule,measurement,setting,value
B1,staining intensity in RSL3-treated cells by flow cytometry,"[1]; 1 μM RSL3, 4 h vs DMSO",increased intensities
same,staining intensity in STS-induced apoptosis by flow cytometry,"[1]; 1 μM STS, 6 h vs DMSO",decreased intensity; also recorded: decreased intensities
same,"staining intensity, IKE-treated vs vehicle samples",[2],increased intensities; also recorded: difference in intensities
same,staining signal in human brain tissue,[3],lack of signal
